Test system: human plasma
Assay: Thrombelastography of human plasma exposed to Crotalus atrox venom and/or tPA (Example II)
Assay type: biochemical
Details: 0.5 μg/ml venom 5 min and/or 100 IU/ml tPA
Description: Two hundred mg of lyophilized, pooled venom was obtained from four western diamondback rattlesnakes (Crotalus atrox) for experimentation. Venom was reconstituted in calcium-free phosphate buffered saline (PBS, Sigma-Aldrich, Saint Louis, Mo., USA) at a concentration of 20 mg/ml, aliquoted, and then stored at −80° C. until experimentation at the University of Arizona.
Pooled normal plasma (George King Bio-Medical, Overland Park, Kans., USA) anticoagulated with sodium citrate was rapidly thawed at 37° C. and used for experimentation. To assess the effects of pretreatment of antifibrinolytic plasma proteins with iron, CO, or both, 1% additions of PBS, ferric chloride (FeCl3, 99.9% pure, Sigma-Aldrich, Saint Louis, Mo., USA) in PBS, or CORM-2 (tricarbonyldichlororuthenium (II) dimer, a CO releasing molecule, Sigma-Aldrich, Saint Louis, Mo., USA) dissolved in dimethyl sulfoxide (DMSO, Sigma-Aldrich, Saint Louis, Mo., USA) were used. […] Plasma was exposed to these various agents for at least 5 min prior to incubations with venom.
The final volume for all subsequently described plasma sample mixtures was 359.4 μl. […] The following elastic modulus-based parameters previously described (see, Nielsen V G, Pretorius E. Blood Coagul Fibrinolysis 2014; 25:695-702) were determined: time to maximum rate of thrombus generation (TMRTG): this is the time interval (min) observed prior to maximum speed of clot growth; maximum rate of thrombus generation (MRTG): this is the maximum velocity of clot growth observed (dynes/cm^2/sec); total thrombus generation (TTG, dynes/cm^2), the final viscoelastic resistance observed after clot formation; time to maximum rate of lysis (TMRL, min), maximum rate of lysis (MRL, dynes/cm^2/sec) and CLT (min). […]

[1] = vs control conditions (combination: vs all other conditions)

B1: tPA: tissue type plasminogen activator, 580 IU/μg, Genentech; 100 IU/ml final concentration (protein, UniProt P00750 36-562, looked up)
Tissue-type plasminogen …: SYQVICRDEKTQMIYQQHQSWLRPVLRSNRVEYCWCNSGRAQCHSVPVKSCSEPRCFNGGTCQQALYFSDFVCQCPEGFAGKCCEIDTRATCYEDQGISYRGTWSTAESGAECTNWNSSALAQKPYSGRRPDAIRLGLGNHNYCRNPDRDSKPWCYVFKAGKYSSEFCSTPACSEGNSDCYFGNGSAYRGTHSLTESGASCLPWNSMILIGKVYTAQNPSAQALGLGKHNYCRNPDGDAKPWCHVLKNRRLTWEYCDVPSCSTCGLRQYSQPQFRIKGGLFADIASHPWQAAIFAKHRRSPGERFLCGGILISSCWILSAAHCFQERFPPHHLTVILGRTYRVVPGEEEQKFEVEKYIVHKEFDDDTYDNDIALLQLKSDSSRCAQESSVVRTVCLPPADLQLPDWTECELSGYGKHEALSPFYSERLKEAHVRLYPSSRCTSQHLLNRTVTDNMLCAGDTRSGGPQANLHDACQGDSGGPLVCLNDGRMTLVGIISWGLGCGQKDVPGVYTKVTNYLDWIRDNMRP
Question: Which results are given for B1?
Answer: maximum rate of thrombus generation (MRTG) [1]: did not decrease; total thrombus generation (TTG) [1]: significantly decreased; time to maximum rate of thrombus generation (TMRTG) (vs control conditions (combination: vs any other condition)): did not prolong
